Assays:
[1] = Glucagon stability assessment (solubility, circular dichroism); format: physicochemical
Description: Human recombinant glucagon (Sigma) was dissolved at 4 mg/ml in PBS containing 1 mM HCl. This was mixed 1:1 with 1 equivalent of CB[7]-PEG10k in PBS, or in PBS alone, for a final glucagon concentration of 2 mg/ml. Vials were left to age at room temperature for various times. Circular dichroism was performed on samples without dilution, as well as on freshly dissolved glucagon, by utilizing a […] cuvette.

[2] = general statement, glucagon alone; cited from earlier work
[3] = Insulin aggregation assay (transmittance at 540 nm); format: physicochemical; details: insulin 1 mg/mL, pH 7.4, 37° C., continuous agitation
Description: Insulin is well known to form fibrillar aggregates in physiologic conditions. To determine whether PEG-T-CB[7] can stabilize insulin and prevent its aggregation, assays were performed in physiologic salt concentrations at pH 7.4 and 37° C. with continuous agitation to determine the kinetics of insulin aggregation in a solution of 1 mg/mL protein (FIG. 3A). Specifically, transmittance was measured at 540 nm, a wavelength where both insulin and the PEG-T-CB[7] have negligible absorbance in order to detect the formation of aggregates, which scatter light, in solution over time. […] After the initial 100 h study, data were collected once daily to determine the duration of stability for each PEG-T-CB[7]/insulin formulation (FIG. 3B).
Recombinant human insulin was dissolved at 4 mg/ml in 2 mM HCl with 150 mM NaCl. […] The plate was immediately placed into an Infinite® M1000 plate reader (Tecan Group, Ltd.) and shaken continuously at 37° C. Absorbance readings at 540 nm were collected every 6 minutes for 100 hours, and absorbance values were subsequently converted to transmittance. […] Following the 100-hour kinetic study, the plate was maintained under continuous agitation at 37° C. and absorbance at 540 nm was monitored daily to approximate tA for the PEG-T-CB[7] conjugates.

[4] = tested on: STZ-induced diabetic mice; assay: In vivo blood glucose in STZ diabetic mice; set-up: species or system mouse; details: insulin 1 IU/kg s.c., alone or with 5 molar equivalents host; normoglycemia <200 mg/dL; 6-hour study
Description: A mouse model of insulin-deficient diabetes, prepared using streptozotocin to induce pancreatic ß-cell death, was used to evaluate the function of PEG-T-CB[7] conjugates in vivo (FIG. 4A). Following the onset of diabetes, mice were fasted overnight to ensure an average starting blood glucose level of approximately 450 mg/dL. See, e.g., Like et al. Science 1976, 193(4251): 415-417. Insulin was then administered subcutaneously at a dose of 1 IU/kg in a saline vehicle. Alternatively, an identical dose of insulin was administered along with CB [7], PEG5k-T-CB[7], PEG10k-T-CB [7], or PEG30k-T-CB [7]. All insulin formulations reduced average blood glucose to a normoglycemic level (<200 mg/dL for a mouse) following a single subcutaneous administration. Animals that received either native insulin or insulin formulated with unmodified CB[7] became hyperglycemic again approximately 2 hours following administration. […]
Male C57BL/6J, age 8 weeks, were purchased the Jackson Laboratory. […] Mice were allowed to eat ad libitum and glucose levels were monitored by peripheral tail vein bleeds using a portable glucose meter (Accu-Chek Aviva, Roche) daily until unfasted glucose levels >400 mg/dL. […] Blood glucose readings were collected every 30 minutes using a handheld glucose meter for 6 hours following insulin injection.

[5] = reported previously (Shaikh et al. 2008); used for fitting; cited from earlier work
native insulin = native insulin (Homo sapiens, UniProt P01308); assay: Acridine orange competitive binding assay; details: AO 8 μM, CB[7] or PEG-T-CB[7] 6 μM, insulin 0-15 μM, in water; one-site competitive binding model; read-out: KD (binding constant toward insulin)
Description: To confirm binding of PEG-T-CB[7] to native insulin, a competitive binding assay was performed using acridine orange (AO) (FIG. 2D). In this assay, the fluorescent emission spectrum of AO is collected. The fluorescence intensity of AO increases when in complex with CB[7] relative to its emission when free in solution. As insulin is added, the CB[7]*AO complex dissociates as a result of stronger binding affinity of the B1 Phenylalanine residue to the CB[7], resulting in a reduction to the measured fluorescence intensity of AO.
Binding of PEG-T-CB[7] conjugates to insulin was assessed using the acridine orange dye displacement assay, in accordance with a previously described protocol. See, e.g., Chinai et al. Journal of the American Chemical Society 2011, 133(23): 8810-8813 Briefly, 6 μM of either unmodified CB[7] or the PEG-T-CB[7] conjugates and 8 μM acridine orange were combined with recombinant insulin (0, 1, 2, 4, 6, 8, 10, 12.5, 15 μM) in H2O. Samples were incubated overnight in light-free conditions and fluorescent spectra were collected on an Infinite® M1000 plate reader (Tecan Group, Ltd.), exciting at 485 nm and collecting the resulting fluorescent spectra from 495-650 nm. […]

## Glucagon: Human recombinant glucagon (Sigma)
[1]; aged for 24 hours at room temperature, 2 mg/ml
  glucagon conformation by circular dichroism after aging: no appreciable glucagon in solution
[1]; glucagon 2 mg/ml in PBS alone
  glucagon solubility when dissolved alone: readily precipitates from solution
[2]
  typical duration of aqueous solubility of glucagon: less than one hour

## native insulin: Recombinant human insulin, unmodified; aged or fresh as stated
[3]; alone or with 1 equivalent host, physiologic salt
  aggregation time (tA), time after which a 10% reduction in transmittance is observed: 13.6 ± 0.2 h
[3]; 100 h
  insulin aggregation in 100 hours of kinetic study: Rapid aggregation
[4]
  duration of normoglycemia following administration (time until hyperglycemic again): approximately 2 hours

## cucurbit[7]uril [CB[7]]
[5]
  CB[7]•AO equilibrium constant Keq: 200000 M⁻¹
Native insulin
  Kd: 2300 ± 200 nM
